B1: TPR 5TU (parent)
chain: GGAUCUUCUCGAUCUAACAAAAAAGACAAAUCUGCCACAAAGCUUGAGAGCAUCUUCGGAUGCAGAGGCGGCAGCCUUCGGUGGCGCGAUAGCGCCAACGUUCUCAACUAUGACACGCAAAACGCGUGCUCCGUUGAAUGGAGUUUAUCAUG

This sample holds only a part of the variants without activity.

This series covers variants of B1. As to the kind of experiment: polymerase ribozyme fitness, log enrichment relative to wild type (log ratio); higher = more active; in vitro selection for triplet polymerase activity. The method, boiled down: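 To select mutant libraries of each subunit of a heterodimeric triplet polymerase ribozyme, built by PCR and transcribed, each was annealed with a biotinylated primer, partner subunit and triplets, then incubated frozen at −7 °C. Extended constructs were gel-excised, captured on streptavidin beads and amplified by RT-PCR, in one round carried out in triplicate. Illumina sequencing of input and output libraries kept genotypes with ≥10 input reads and ≥1 read per output. Fitness is the base-2 logarithm of genotype enrichment relative to wild-type enrichment, from inverse-variance-weighted replicate averages.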
As for A40G G117A, the “polymerase ribozyme fitness (log ratio)” value was -3.18. For A41U C75A C93U, the “polymerase ribozyme fitness (log ratio)” value is at most -4.2. With A40U G59U C75A C85U U109A the figure was at most -4.2. With A41C U90G A113C the figure was at most -4.2; with A41C C93U A97C U102G, at most -4.2; with A41U C85A A98G A122U G152U, at most -4.2.

For A40U G50C G67C C103A C129G U144G, the “polymerase ribozyme fitness (log ratio)” value is at most -4.2. With A41U C54G G88C U130A the figure was at most -4.2.

Take A40U C57U A89C C99G A119G: the “polymerase ribozyme fitness (log ratio)” value was -1.22. As for A41C U44A G84A U146G, the figure is at most -4.2; as for A41C C149A, -4.19; as for A40U C93U U101G G128U, -4.04. In the case of A41C C57U C87G A98U G136U A147C, the “polymerase ribozyme fitness (log ratio)” value is at most -4.2. As for A40U C116A, the figure is 0.309; as for A41C G67A G81U G94C A107C, at most -4.2.

For A40U U55A G59A C79U U82G G83A G128A U139G G143A, the “polymerase ribozyme fitness (log ratio)” value was at most -4.2. Consider A41C A97G A121G, for which the “polymerase ribozyme fitness (log ratio)” value is -0.295. With A41C C85A C105G G126U the figure was -3.3; with A41G G42U A66U G74A U151G, at most -4.2. With A40U A91G the figure was -3.33; with A41U C54G G65C G84U G141A C149A, at most -4.2.

With A41G C75G, the “polymerase ribozyme fitness (log ratio)” value is -2.98.

Take A40U G86A: the “polymerase ribozyme fitness (log ratio)” value was -0.914. With A41C C85U A122U G126C the figure was -0.655; with A40U C54U C85U C108U, at most -4.2.

Turning to A41U C76U G88C U130C, the “polymerase ribozyme fitness (log ratio)” value was at most -4.2. As for A41G C96A, the figure is 0.0745; as for A41C G50C G84A, at most -4.2; as for A41C C57U A89U G92C C116G C125A, at most -4.2. For the variant A40U C114U G141C G152U, the “polymerase ribozyme fitness (log ratio)” value was -3.44.

For the variant A41G G84U, the “polymerase ribozyme fitness (log ratio)” value was -0.79. As for A41C A49C G81A A97C C103G G124U U134C, the figure is at most -4.2.

In the case of A41C G94A U104G A113C C116G, the “polymerase ribozyme fitness (log ratio)” value is at most -4.2. With A40U C79G A91G the figure was at most -4.2. With A41C A137G C149U the figure was -2.44; with A40G U55A C76G G81A G86U C149U, at most -4.2; with A41G C51A G83A, -2.57.

Turning to A41U A66C G88A A113C G143A U146C, the “polymerase ribozyme fitness (log ratio)” value was at most -4.2.

As to A40G G124U, the “polymerase ribozyme fitness (log ratio)” value is -2.64. With A40G U82G the figure was -1.38; with A41C G50A A52C C54U U56A C75U C87U U146G A150G, at most -4.2; with A41C C95A, -0.7. As for A41C C95U, the figure is -2.15. As for A41C C95G, the figure is -0.72; as for A41C G92U A98G C123G G133C U134A G152U, at most -4.2; as for A41C U55C C85G C108U G126A, at most -4.2.

As for A40U A41U A49U G59A C87G U146G, the “polymerase ribozyme fitness (log ratio)” value is at most -4.2. With A41G U44A U61C C75U A142C the figure was at most -4.2; with A40U G58C A113C G124A, -2.93; with A41U A120C C125A A142C, -4.12. Take A41U A91U G140A: the “polymerase ribozyme fitness (log ratio)” value is at most -4.2.

A41G C76U G86A G117A: the “polymerase ribozyme fitness (log ratio)” value is -0.646. A41C G80C: the “polymerase ribozyme fitness (log ratio)” value is -4.11. With A41C C93G the figure was -3.5; with A41C U56G C76A C118G U134C, -3.21.

As for A41C C57A C87U C114G, the “polymerase ribozyme fitness (log ratio)” value was -3.91. With A41U A89U C93U G117U A147U the figure was -2.89. For the variant A41C G136A, the “polymerase ribozyme fitness (log ratio)” value is 0.215. With A40G G143A the figure was -2.88; with A41C C69A, -2.53. For A41U C93A A122G, the “polymerase ribozyme fitness (log ratio)” value is -4.19.

In the case of A41C A113U C114A, the “polymerase ribozyme fitness (log ratio)” value is at most -4.2. With A41U C85G the figure was -2.37. As for A41G G94U C114U A150G, the figure is -3.98; as for A41C C103A, -1.44. A41C G48C C57U G84A: the “polymerase ribozyme fitness (log ratio)” value is -2. As to A40U C63U G70C, the “polymerase ribozyme fitness (log ratio)” value was -2.97. With A41C G83C the figure was -0.571.

A40U C57G C105A: the “polymerase ribozyme fitness (log ratio)” value was -0.98.

For the variant A41C G65A C93U G94U C103G, the “polymerase ribozyme fitness (log ratio)” value was at most -4.2. On to A41C U127C, for which the “polymerase ribozyme fitness (log ratio)” value is -2.04. With A40U C85G the figure was -1.32.

With A40U C85A, the “polymerase ribozyme fitness (log ratio)” value was -1.44. On to A40U A91U U102A U104C U139A, for which the “polymerase ribozyme fitness (log ratio)” value is at most -4.2. Turning to A40G U45A A47C C99U A115C G124C, the “polymerase ribozyme fitness (log ratio)” value was at most -4.2. As for A41C U45G U53A G83C A91U C93U A115G U144A, the figure is at most -4.2; as for A41C C72G A106G G143C U151G, at most -4.2; as for A41C C63G A64C U111C, at most -4.2. As for A41C A91C C118A C125A A150U, the figure is at most -4.2. As for A41U C87U A137U G143U, the figure is at most -4.2; as for A41C A120U, -0.45; as for A41C G48A, -1.3. Turning to A40U A49C C72A C95U C99G A138C, the “polymerase ribozyme fitness (log ratio)” value was at most -4.2. With A40U U45A C69U G83U G141A U144A the figure was at most -4.2.

The values are drawn from the RNAGym collection of RNA variant scans (doi:10.1073/pnas.2313332121).
